Reference: article PMC8880691, “Impact of Linker Modification and PEGylation of Vancomycin Conjugates on Structure-Activity Relationships and Pharmacokinetics” (Pharmaceuticals, 2022)
Where a name gives a salt, the structure may show the parent alone.

Key:
B. subtilis DSM10 = assay: microbe, parasite or virus in culture; format: cell-based
Experimental: (§1) The conjugates were tested in microdilution assays according to CLSI (Clinical and Laboratory Standards Institute) and EUCAST (European Committee on Antimicrobial Susceptibility Testing) guidelines on both vancomycin-sensitive and-resistant Gram-positive bacterial strains.
(§2) Antimicrobial activity assays were performed by microdilution and conducted in accordance with CLSI and EUCAST guidelines. Serial dilutions in MHB II (cation adjusted) were performed on 96-well plates using water-stock solutions of the compounds at different concentrations. Overnight cultures of bacterial strains were used to obtain bacteria in the logarithmic growth phase. Bacteria were adjusted to a McFarland corresponding to 1 × 10^8 cfu/mL. After a 1:100 dilution, the culture broth was loaded onto the 96-well polypropylene plates, resulting in a final bacterial concentration of 5 × 10^5 cfu/mL. Plates were then incubated at 37 ± 1 °C for 18–24 h. The MICs were assessed as the lowest concentration without visible growth.
Table S1. Minimum inhibitory concentration against B. subtilis DSM10.
activity. Shown is the median of at least three independent measurements (range is shown in brackets).
Compound Minimum Inhibitory Concentration
against B. subtilis DSM10 [mg/L] […]
[mg/L] [% hemolysis] [% hemolysis] [% hemolysis] […]

erythrocytes = format: cell-based, human
Experimental: To determine the toxicity to red blood cells and thus confirm the selectivity to bacteria, a hemoglobin release assay was carried out with VAN1, VAN2 and VAN3, as well as the PEGylated conjugate, VAN:PEG1.
To exclude lytic activity and to evaluate the toxicological potential of the conjugates, hemolysis studies were performed as previously described. Briefly, fresh heparinized blood of four male, fasted volunteers was taken, and erythrocytes were purified by centrifugation of the blood at 2500 rpm for 10 min. The supernatant was removed, and the resulting pellet was washed with PBS at least three times, until the supernatant remained clear. The conjugates were serially diluted from stock solutions (in phosphate-buffered saline) in a 96-well plate at concentrations ranging from 120 µg/mL to 0.23 µg/mL (VAN1) or 16 µg/mL to 0.03 µg/mL (VAN2, VAN3 and VAN:PEG1), resulting in a final volume of 50 µL. A solution of Triton®X-100 in PBS was used as positive control. Finally, 50 µL of the washed erythrocytes was loaded into each well. After incubation for 30 min at 37 °C, 75 µL PBS was added to each well, and the plates were centrifuged for 5 min at 4000 rpm. A total of 50 µL of the supernatants was then transferred into a new polystyrene, flat-bottom 96-well plate, and the absorbances were measured at 554 nm using a Tecan microplate reader. Hemolysis was calculated as follows: Hemolysis %=100×Asubstance−Aneg. control/ATriton−Aneg. control
The negative control was erythrocytes, treated as described but using only PBS.

[1] = Biodistribution study with excised organs, 125I-labeled compounds; format: in vivo, female Wistar rats; conditions: rat
Experimental: (§3) Molecular imaging and biodistribution studies were performed for VAN1 and VAN2, as well as for VAN:PEG1 and VAN:PEG2, using female Wistar rats.
To further compare the two modification strategies, the biodistribution profiles of VAN1, VAN2 and vancomycin were compared using excised organs. This study confirms significant liver accumulation in most cases.
(§4) For biodistribution and pharmacokinetic studies, compounds were radiolabeled with ^125I. The previously described method for the insertion of an additional D-tyrosine to the N-terminus of the peptide moiety was used to enable […] substitution for VAN1 and VAN2 [11]. For the PEGylated derivatives, VAN:PEG1 and VAN:PEG2, tyrosine-modified FU002y was used to synthesize the intermediate. Radiolabeling was performed using the chloramine T method as previously described. Thus, a 1 mM stock solution of the respective compound in phosphate buffer/dimethyl sulfoxide was prepared. The required amount of the radionuclide (^125I) was added to a mixture of 25 μL of the stock solution and 25 μL of phosphate buffer (0.25 mM; pH = 7.5). Purification of the labeled compounds was performed by semi-preparative HPLC. Analysis was conducted by radio HPLC (Agilent 1100 series) using a Chromolith® Performance RP-18e, 100 × 3 mm column, applying a linear gradient of 0.1% TFA in water (eluent A) to 0.1% TFA in acetonitrile (eluent B) within 5 min (flow rate, 2 mL/min; UV absorbance, λ = 214 nm; γ-detection). Animals were anaesthetized by isoflurane inhalation, and appropriate amounts of the radiolabeled conjugate dissolved in 100 µL 0.9% NaCl solution were injected into the tail vein. Cumulative scintigraphic images were taken after 10 min and 1, 2, 3, 5 and 24 h. For the biodistribution studies, animals were sacrificed at the indicated points in time. The activity of the weighed organs was measured in comparison with standards. Tissue-associated activity was related to the total injected dose (ID) and expressed as a percentage of the total injected dose per gram of tissue (%ID/g). The data were calculated afterwards to obtain the respective organ/organ or organ/blood ratios.

[2] = Molecular imaging (scintigraphy) of 125I-labeled compounds; format: in vivo, female Wistar rats; conditions: rat
Experimental: as §3, §4

[3] = test system: vanB vancomycin-resistant enterococci; assay: Microdilution assay on vancomycin-resistant strains of the vanB type; format: cell-based
Experimental: as §1, §2

[4] = test system: vanC vancomycin-resistant enterococci; assay: Microdilution assay on vancomycin-resistant strains of the vanC type; format: cell-based; conditions: resistant strains of the vanC type (low-level resistant)
Experimental: as §1, §2

[5] = 10 min post injection, tail vein, from %ID/g of excised organs

SMILES | Minimum Inhibitory Concentration against B. subtilis DSM10 (B. subtilis DSM10) | hemolytic activity (erythrocytes) | Ratio Kidney/Blood ([1]; in vivo) | Ratio Liver/Blood ([1]; in vivo) | Ratio Liver/Kidney ([1]; in vivo) | pharmacokinetic behavior by molecular imaging ([2]; in vivo) | overcoming the molar-resistance breakpoint (EUCAST), vanB type [3] | overcoming the molar-resistance breakpoint (EUCAST), vanC type [4] | MIC (B. subtilis DSM10; Bacillus subtilis, DSM10, read-out: Minimum Inhibitory Concentration against B. subtilis DSM10) [µg/mL] | Ratio Kidney/Blood [1, 5] | Ratio Liver/Blood [1, 5] | Ratio Liver/Kidney [1, 5] | pharmacokinetic behavior by molecular imaging ([2]; 125I-labeled, tail vein injection, scintigraphic images 10 min to 24 h)
CC(C)C[C@H](C(=O)N[C@H]1C(=O)N[C@@H](CC(N)=O)C(=O)N[C@H]2C(=O)N[C@H]3C(=O)N[C@H](C(=O)N[C@H](C(=O)O)c4cc(O)cc(O)c4-c4cc3ccc4O)[C@H](O)c3ccc(c(Cl)c3)Oc3cc2cc(c3O[C@@H]2O[C@H](CO)[C@@H](O)[C@H](O)[C@H]2O[C@H]2C[C@](C)(N)[C@H](O)[C@H](C)O2)Oc2ccc(cc2Cl)[C@H]1O)N(C)C(=O)CCCCCCCCCCN1C(=O)CC(SC[C@H](NC(=O)[C@H](CCCNC(=N)N)NC(=O)[C@H](CCCNC(=N)N)NC(=O)[C@H](CCCNC(=N)N)NC(=O)[C@H](CCCNC(=N)N)NC(=O)[C@H](CCCNC(=N)N)NC(=O)[C@@H](N)CCCNC(=N)N)C(N)=O)C1=O (stereo partly drawn) [VAN1] | 1 (0.5–1) mg/L | None of the compounds showed significant hemolytic activity | 2.22 | 10.13 | 4.47 | accumulates quickly in the liver |  |  |  |  |  |  | 
CC(C)C[C@H](C(=O)N[C@H]1C(=O)N[C@@H](CC(N)=O)C(=O)N[C@H]2C(=O)N[C@H]3C(=O)N[C@H](C(=O)N[C@H](C(=O)O)c4cc(O)cc(O)c4-c4cc3ccc4O)[C@H](O)c3ccc(c(Cl)c3)Oc3cc2cc(c3O[C@@H]2O[C@H](CO)[C@@H](O)[C@H](O)[C@H]2O[C@H]2C[C@](C)(N)[C@H](O)[C@H](C)O2)Oc2ccc(cc2Cl)[C@H]1O)N(C)C(=O)CCOCCOCCOCCOCCOCCOCCOCCOCCOCCOCCOCCOCCNC(=O)CCN1C(=O)CC(SC[C@H](NC(=O)[C@H](CCCNC(=N)N)NC(=O)[C@H](CCCNC(=N)N)NC(=O)[C@H](CCCNC(=N)N)NC(=O)[C@H](CCCNC(=N)N)NC(=O)[C@H](CCCNC(=N)N)NC(=O)[C@@H](N)CCCNC(=N)N)C(N)=O)C1=O (stereo partly drawn) [VAN2] | 2 (1–4) mg/L | None of the compounds showed significant hemolytic activity | 10.09 | 9.25 | 0.92 | rapid liver accumulation can still be observed, in addition to renal elimination | able to overcome the molar-resistance breakpoint | able to overcome the molar-resistance breakpoint |  |  |  |  | 
CN[C@H](CC(C)C)C(=O)N[C@H]1C(=O)N[C@@H](CC(N)=O)C(=O)N[C@H]2C(=O)N[C@H]3C(=O)N[C@H](C(=O)N[C@H](C(=O)O)c4cc(O)cc(O)c4-c4cc3ccc4O)[C@H](O)c3ccc(c(Cl)c3)Oc3cc2cc(c3O[C@@H]2O[C@H](CO)[C@@H](O)[C@H](O)[C@H]2O[C@H]2C[C@](C)(N)[C@H](O)[C@H](C)O2)Oc2ccc(cc2Cl)[C@H]1O [Vancomycin, vancomycin hydrochloride] |  |  |  |  |  |  |  |  | 0.25 | 2.16 | 0.36 | 0.17 | fast renal elimination
CC(C)C[C@H](C(=O)N[C@H]1C(=O)N[C@@H](CC(N)=O)C(=O)N[C@H]2C(=O)N[C@H]3C(=O)N[C@H](C(=O)N[C@H](C(=O)O)c4cc(O)cc(O)c4-c4cc3ccc4O)[C@H](O)c3ccc(c(Cl)c3)Oc3cc2cc(c3O[C@@H]2O[C@H](CO)[C@@H](O)[C@H](O)[C@H]2O[C@H]2C[C@](C)(N)[C@H](O)[C@H](C)O2)Oc2ccc(cc2Cl)[C@H]1O)N(C)C(=O)CN1C(=O)CC(SC[C@H](NC(=O)[C@H](CCCNC(=N)N)NC(=O)[C@H](CCCNC(=N)N)NC(=O)[C@H](CCCNC(=N)N)NC(=O)[C@H](CCCNC(=N)N)NC(=O)[C@H](CCCNC(=N)N)NC(=O)[C@@H](N)CCCNC(=N)N)C(N)=O)C1=O (stereo partly drawn) [VAN3] | < 0.125 mg/L | None of the compounds showed significant hemolytic activity |  |  |  |  |  |  |  |  |  |  | 
